Results reported in patent US20130210888.

Columns and labels:
[1] = tested on: CoREST del 2 (aa 293-482), His-tagged
[2] = tested on: His-tagged full length (1-482aa) human CoREST

“histidine epitope-tagged LSD1 (HIS-LSD1), full length (1-851aa) human LSD1” was tested, and the “stimulation of LSD1 demethylation activity (nucleosomal substrates)” value [1] was “sufficient to mediate stimulation of LSD1 demethylation activity to a level that is comparable to that of the wildtype CoREST” and the “demethylation of nucleosomal substrates by LSD1 (Western blot with K4-H3 methylation-specific antibodies)” value [2] was “addition of CoREST to the demethylation reaction restored the ability of recombinant LSD1 to demethylate nucleosomal substrates”.
